Experimental data as given in patent US20080248046A1 (Human Genome Sciences, published 2008).

Experiments:
[1] = target: T1, DR5 expressed from an expression construct in 293 cells (immunoprecipitated with Flag M2 antibody affinity … (human, UniProt O14763 52-440)); assay: co-transfection of 293 cells, Flag M2 immunoprecipitation, immunoblot with polyclonal antibody to FADD
T1 construct: The text says only 'the indicated expression constructs'; also called Death Domain Containing Receptor 5
Source text: (§1) 293 cells were co-transfected with the indicated expression constructs using calcium phosphate precipitation.

[2] = target: T1, DR5 expressed from an expression …; assay: co-transfection of 293 cells, Flag M2 immunoprecipitation, immunoblot with HRP-conjugated antibody to myc
Source text: as §1

binding result [1]	binding result [2]	Binder
no binding	–	FADD (other, UniProt Q13158 1-208, looked up, also called FADD/MORT1) MDPFLVLLHSVSSSLSSSELTELKFLCLGRVGKRKLERVQSGLDLFSMLLEQNDLEPGHTELLRELLASLRRHDLLRRVDDFEAGAAAGAAPGEEDLCAAFNVICDNVGKDWRRLARQLKVSDTKIDSIEDRYPRNLTERVRESLRIWKNTEKENATVAHLVGALRSCQMNLVADLVQEVQQARDLQNRSGAMSPMSWNSDASTSEAS
–	no binding	myc-tagged TRADD (other, UniProt Q15628 1-312, looked up, also called myc-TRADD) MAAGQNGHEEWVGSAYLFVESSLDKVVLSDAYAHPQQKVAVYRALQAALAESGGSPDVLQMLKIHRSDPQLIVQLRFCGRQPCGRFLRAYREGALRAALQRSLAAALAQHSVPLQLELRAGAERLDALLADEERCLSCILAQQPDRLRDEELAELEDALRNLKCGSGARGGDGEVASAPLQPPVPSLSEVKPPPPPPPAQTFLFQGQPVVNRPLSLKDQQTFARSVGLKWRKVGRSLQRGCRALRDPALDSLAYEYEREGLYEQAFQLLRRFVQAEGRRATLQRLVEALEENELTSLAEDLLGLTDPNGGLA
